From patent US20250163167A1 (SYNTHEKINE, published 2025)

T1: hIL10Rb-his (Sino Biological, Catalog#10945) (human, UniProt Q08334 20-220)
T1 construct: Bought; also called Sino Biological cat#10945-H08H; not shown: C-terminal poly-His tag
T1 sequence: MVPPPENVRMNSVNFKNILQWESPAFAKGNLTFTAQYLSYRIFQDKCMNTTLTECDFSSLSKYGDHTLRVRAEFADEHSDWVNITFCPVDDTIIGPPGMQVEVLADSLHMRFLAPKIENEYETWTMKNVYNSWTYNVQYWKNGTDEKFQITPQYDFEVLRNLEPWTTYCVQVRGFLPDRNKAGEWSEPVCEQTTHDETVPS

T2: hIL10Ra-his (Sino Biological, Catalog#10419) (human, UniProt Q13651 22-235)
T2 construct: Bought; also called Sino Biological cat#10419-H08H; not shown: C-terminal poly-His tag
T2 sequence: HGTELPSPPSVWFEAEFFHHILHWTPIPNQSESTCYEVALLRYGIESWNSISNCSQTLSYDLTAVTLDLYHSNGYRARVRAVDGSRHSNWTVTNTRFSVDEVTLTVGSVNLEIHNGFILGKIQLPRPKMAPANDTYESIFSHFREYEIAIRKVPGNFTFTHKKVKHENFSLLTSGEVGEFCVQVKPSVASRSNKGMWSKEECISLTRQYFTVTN


Key:
[1] = molecular target: T1, hIL10Rb-his (Sino Biological, …); test: SPR Biacore T200; biotinylated dual VHH captured on CAP biotin chip, hIL10Rb-his analyte; 1:1 Langmuir fit
[2] = molecular target: T1, hIL10Rb-his (Sino Biological, …); test: SPR; ratio of experimental to calculated Rmax
[3] = molecular target: T2, hIL10Ra-his (Sino Biological, …); test: SPR Biacore T200; biotinylated dual VHH captured on CAP biotin chip, hIL10Ra-his analyte; 1:1 Langmuir fit
[4] = molecular target: T1, hIL10Rb-his (Sino Biological, …); test: SPR Biacore T200; mono-Fc VHH captured on Protein A chip, hIL10Rb-his analyte; 1:1 Langmuir fit (row flagged: inaccurate fit)
From the text: To confirm and evaluate binding affinities of the binding of the hIL10Rb sdAbs, a representative example from each clonotype generated was selected for evaluation of binding via SPR. […] RMAX<100 RU indicates surface density compatible with kinetics analysis. Calculated Rmax values were generated using the equation: Rmax=Load (RU)×valency of ligand×(Molecular weight of analyte/Molecular weight of ligand). Surface activity was defined as the ratio of experimental/calculated Rmax.
One representative example from each clonotype of IL10a generated in accordance with Examples 1-3 was selected for evaluation of binding via SPR as follows. […] All experiments were conducted in 10 mM Hepes, 150 mM NaCl, 0.05% (v/v) Polysorbate 20 (PS20) and 3 mM EDTA (HBS-EP+ buffer) on a Biacore T200 instrument equipped with a Protein A derivatized sensor chip (Cytiva). Mono-Fc VHH ligands were flowed at 5 μl/min for variable time ranging from 18 to 300 seconds, reaching the capture loads listed in the tables below. Following ligand capture, injections of a 2-fold dilution series of the extracellular domain of the […] modified to incorporate a C-terminal poly-His sequence, typically comprising at least five concentrations between 1 μM and 1 nM, were performed in either high performance or single cycle kinetics mode. Surface regeneration was achieved by flowing 10 mM glycine-HCl, pH 1.5 (60 seconds, 50 μL/min).

[5] = molecular target: T2, hIL10Ra-his (Sino Biological, …); test: SPR Biacore T200; biotinylated dual VHH captured on CAP biotin chip, hIL10Ra-his analyte; kon, koff and Rmax printed N/A

Binder | Kd [1] [nM] | koff [1] [s⁻¹] | kon [1] [M⁻¹ s⁻¹] | Activity [2] [%] | Kd [3] [nM] | koff [3] [s⁻¹] | kon [3] [M⁻¹ s⁻¹] | Kd [4] [nM] | koff [4] [s⁻¹] | kon [4] [M⁻¹ s⁻¹] | Kd [5] [nM]
hIL10Rb_VHH1-hIL10Ra_VHH9-biotin (bispecific antibody, conjugated to biotin (site not stated)) QVQLQESGGGSVQAGGSLRLSCAASGYTYSSGCMGWFRQAPGKEREAVAAINSDGSTSYADSVKGRFTISKDNAKNTLYLQMNSLKPEDTAMYYCAAEPYCSGGYPRWSVAEFGYWGQGTQVTVSSGGGSQVQLQESGGGSVQAGGSLRLSCAVSGYAYSTYCMGWFRQAPGKEREGVAAIDSGGSTSYADSVKGRFTISKDNAKNTLYLRMNSLKPEDTAMYYCAAVPPPPDGGSCLFLGPEIKVSKADFRYWGQGTQVTVSS | 2.7 | 0.0018 | 660000 | 25 | 1.1 | 0.00027 | 250000 |  |  |  | 
hIL10Ra_VHH12-hIL10Rb_VHH27 biotin (bispecific antibody, conjugated to biotin (site not stated), also called IL10 VHH DR509 biotin; DR509) QVQLQESGGGSVQAGGSLRLSCTVSGYTYSSNCMGWFRQAPGKEREGVATIYTGGGNTYYADSVKGRFTISQDNAKNTVYLQMNNLKPEDTAMYYCAAEPLSRVYGGSCPTPTFDYWGQGTQVTVSSGGGSQVQLQESGGGSVQTGGSLRLSCAASGYTYLRGCMGWFRQAPGKEREGVAVMDVVGDRRSYIDSVKGRFTISRDNAANSVYLQMDNLKPEDTAMYYCTAGPNCVGWRSGLDYWGQGTQVTVSS | 1.9 | 0.003 | 1.6e+06 | 85 | 0.2 | 0.00013 | 490000 |  |  |  | 
hIL-10Rb_VHH16 Mono-Fc (Fc fusion, Mono-Fc VHH captured on Protein A; not shown: mono-Fc part) QVQLQESGGGSVEAGGSLRLSCAASGYTHSSYCMGWFRQAPGKEREGVAAIDVDGSTTYADSVKGRFTISKDNAKNTLYLQMNSLKPEDTGMYYCAAEFADCSSNYFLPPGAVRYWGQGTQVTVSS |  |  |  |  |  |  |  | 7540 | 0.0221 | 2930 | 
hIL10Rb_VHH12-hIL10Ra_VHH8 biotin (bispecific antibody, conjugated to biotin (site not stated)) QVQLQESGGGSVQAGGSLRLSCAASGYTYSSYCMGWFRQAPGKEREGVAHIDSDGSTSYADSVKGRFTISKDNAKNTLYLQMNSLKPEDTAMYYCAADPIPGPGYCDGGPNKYWGQGTQVTVSSGGGSQVQLQESGGGSVQAGGSLRLSCAASGYTYSMYCMGWFRQAPGKEREGVAQINSDGSTSYADSVKGRFTISKDNAKNTLYLQMNSLKPEDTAMYYCAADSRVYGGSWYERLCGPYTYEYNYWGQGTQVTVSS | 1.5 | 0.00068 | 440000 | 42 | 0.35 | 6.5e-05 | 180000 |  |  |  | 
hIL10Ra_VHH17-hIL10Rb_VHH16 biotin (bispecific antibody, conjugated to biotin (site not stated)) QVQLQESGGGSVQAGGSLRLSCAASGYSNCSYDMTWYRQAPGKEREFVSAIHSDGSTRYADSVKGRFFISQDNAKNTVYLQMNSLKPEDTAMYYCKTDPLHCRAHGGSWYSVRANYWGQGTQVTVSSGGGSQVQLQESGGGSVEAGGSLRLSCAASGYTHSSYCMGWFRQAPGKEREGVAAIDVDGSTTYADSVKGRFTISKDNAKNTLYLQMNSLKPEDTGMYYCAAEFADCSSNYFLPPGAVRYWGQGTQVTVSS | 2.9 | 0.00045 | 160000 | 34 |  |  |  |  |  |  | < 5
